Test results taken from patent US8586570B2, “Sox-based kinase sensor” (Massachusetts Institute of Technology, priority 2006, dated 2013).
Like-named read-outs stand apart in the source and are kept apart here.

Experiments:
[1] = target: T1, PKCα (Homo sapiens, UniProt P17252); conditions: optimal PKCα peptide substrate selected from the literature; cited from earlier work
[2] = Fluorescence increase, phosphopeptide vs unphosphorylated peptide at 485 nm; format: physicochemical; conditions: phosphopeptide / unphosphorylated peptide intensity at 485 nm, generally 10 mM Mg2+
Procedure: (§1) Fluorescence experiments were performed on a Fluoromax 3 from Jobin Yvon. 5 nm emission and excitation slit widths were used. For all experiments, an excitation wavelength of 360 nm was used. Enzyme assays were performed by monitoring emission at 485 nm.
After peptide characterization, emission spectra were obtained for unphosphorylated and phosphorylated peptides under appropriate conditions. The spectra were generally acquired in the presence of 10 mM Mg^2+(although lower Mg^2+concentrations can and have been used as well) and either 0, 0.1 or 1 mM ATP in a preselected buffer (usually 20 mM HEPES, pH 7.4). Relying on the emission spectra the fold fluorescence differences were measured by dividing the fluorescence intensity of the phosphopeptide by the fluorescence intensity of its unphosphorylated counterpart at 485 nm. FIG. 2 depicts the fluorescence spectra of the phosphorylated and unphosphorylated peptides in the appropriate assay mixture: (A) emissions scans of PKCβI-1 (10 μM), 10 mM Mg(II), 3×; (B) emissions scans of PKCβI-1 (10 μM), 10 mM Mg(II), 0 mM ATP, 3×.; (C) fluorescence difference for PKCβI-1 (10 μM), 10 mM Mg(II), 3×; (D) fluorescence increase for PKCβI-1 (10 μM) at 10 mM Mg (II).

[3] = system: PKC isozymes present in cells; test: Use of sensor in cell lysates
From the text: In comparison, the chemosensors with the extended recognition domain as disclosed in the present invention for PKCα, PKCα-S9 and PKCα-S10, also have good biophysical properties (Table IV).

[4] = target: T1, PKCα; test: Kinetic parameters of the peptides with PKCα (continuous fluorescence assay); format: biochemical; conditions: for Km / Vmax: with PKCα
From the text: To solve for enzyme kinetic parameters for this reaction, determination of the initial rate of product formation from the increase in fluorescence intensity is necessary. With this sensor, a correction for the decrease in fluorescence intensity due to the starting material being consumed is needed to determine the rate of product formation from the initial slope. The fluorescence intensity at any given point can be determined from the following equation: I(t)=fSs(t)+fPP(t) (1) where I(t) is the fluorescence intensity, S(t) is the amount of substrate in μM, P(t) is the amount of product in μM, fS is the fluorescence intensity per μM of substrate, and fP is fluorescence intensity per μM of product. The amount of substrate and product at any given point are related by: S(t)+P(t)=S0 (2) where S0 is the initial amount of substrate. Substitution of (2) into (1) followed by rearrangement, yields:
[formula] The initial slope of the reaction, dI(t)/dt, was measured within the first 5% of substrate turnover. The constants fP and fS were calculated from the slope of a line of fluorescence intensity versus concentration of P and S, respectively. A linear fit of a Hanes plot ([S]/V vs. […]) was used to find Km and Vmax.
For in vitro applications, the concentration of kinase can range from about 0.5 nM to about 1 μM, typically not more than about 500 nM, and preferably not more than about 250 nM. The concentrations of sensor can vary, but usually ranges between about 0.01 μM to 0.1 mM. Adenosine 5′-triphosphate (ATP) is the preferred source of phosphate, in stock solutions of about 10-100 mM. Because most kinases have Km values for ATP in the range of about 10-150 μM, saturating concentrations of ATP are used to arrive at values of Km and Vmax for the substrates. For in vivo applications, when the sensor is internalized into a cell, sufficient kinases, Mg^2+ and phosphate sources exist in the cytosol. For in vivo sensing, a cellular internalization sequence can be included in the sensor design. Suitable cellular internalization sequences include Penetratins, HIV-Tat domains and poly-arginine sequences (Lindgren, M. et al. Trends Pharmacol. Sci. 2000, 21, 99-103; Wadia, J. S. et al. Curr Opin. Biotech. 2002, 13, 52-56; Carrigan, C. N. Analyt. Biochem. 2005, 341, 290-298).
For applications in which the kinase is dependent on cofactors, a source of cofactor is also included in the sample. For example, for PKC, sources of Ca^2+, phospholipid and diacylglycerol are needed.
as §1

Substance | Km [1] | Fluorescence Increase [2] | reactivity in cell lysates [3] | Km [4] | Vmax [4] | selectivity for PKCα ([4]; as determined by kinetic parameters, compared with PKCα-S1)
RRRKGS*FRRKA (RRRKGSFRRKA) [optimal PKCα peptide substrate selected from the literature] | 3.8 µM | – | – | – | – | –
Ac-Sox-P-G-(p)S F R R R-NH2 [PKCα-S1(P1), reference compound] | – | 5.7 x | reactive toward many of the PKC isozymes | 8.6 ± 2.9 µM | 5.9 ± 1.9 µmol/min/mg | –
Ac-R R R-C(Sox)-G-(p)S F R R K A-NH2 [PKCα-S9(P9)] | – | 3.5 x | – | 0.093 ± 0.017 µM | 1.8 ± 0.12 µmol/min/mg | much more selective for PKCα
